Assays:
[1] = target: wild-type KSHV ORF74 expressed in HEK293T cells (Kaposi's Sarcoma-associated Herpesvirus (HHV-8)) (UniProt Q98146)
[2] = target: KSHV ORF74 with L169W, L258V and two C-terminal threonines deleted (apo construct) (Kaposi's Sarcoma-associated Herpesvirus (HHV-8)) (UniProt Q98146); experiment: cryo-EM structure

Substance	BRET2 (TRUPATH) G protein activation in HEK293T cells, Rluc8-Gαq / Gβ / GFP2-Gγ sensor, dose response to recombinant CXCL1: potency of CXCL1 [1]	stoichiometry N [2]
Gαq subunit (Rluc8-fused, TRUPATH) (from UniProt P50148 1-359) (natural protein)	6.7 pEC50	–
KSHV ORF74 with L169W, L258V and two C-terminal threonines deleted (apo construct) (from UniProt Q98146 1-340) (receptor)	–	2
